Experimental data from IntAct's records for PubMed 8599766.

B1: Insulin receptor substrate 1 (Homo sapiens), P35568 (parent)
chain: MASPPESDGFSDVRKVGYLRKPKSMHKRFFVLRAASEAGGPARLEYYENEKKWRHKSSAPKRSIPLESCFNINKRADSKNKHLVALYTRDEHFAIAADSEAEQDSWYQALLQLHNRAKGHHDGAAALGAGGGGGSCSGSSGLGEAGEDLSYGDVPPGPAFKEVWQVILKPKGLGQTKNLIGIYRLCLTSKTISFVKLNSEAAAVVLQLMNIRRCGHSENFFFIEVGRSAVTGPGEFWMQVDDSVVAQNMHETILEAMRAMSDEFRPRSKSQSSSNCSNPISVPLRRHHLNNPPPSQVGLTRRSRTESITATSPASMVGGKPGSFRVRASSDGEGTMSRPASVDGSPVSPSTNRTHAHRHRGSARLHPPLNHSRSIPMPASRCSPSATSPVSLSSSSTSGHGSTSDCLFPRRSSASVSGSPSDGGFISSDEYGSSPCDFRSSFRSVTPDSLGHTPPARGEEELSNYICMGGKGPSTLTAPNGHYILSRGGNGHRCTPGTGLGTSPALAGDEAASAADLDNRFRKRTHSAGTSPTITHQKTPSQSSVASIEEYTEMMPAYPPGGGSGGRLPGHRHSAFVPTRSYPEEGLEMHPLERRGGHHRPDSSTLHTDDGYMPMSPGVAPVPSGRKGSGDYMPMSPKSVSAPQQIINPIRRHPQRVDPNGYMMMSPSGGCSPDIGGGPSSSSSSSNAVPSGTSYGKLWTNGVGGHHSHVLPHPKPPVESSGGKLLPCTGDYMNMSPVGDSNTSSPSDCYYGPEDPQHKPVLSYYSLPRSFKHTQRPGEPEEGARHQHLRLSTSSGRLLYAATADDSSSSTSSDSLGGGYCGARLEPSLPHPHHQVLQPHLPRKVDTAAQTNSRLARPTRLSLGDPKASTLPRAREQQQQQQPLLHPPEPKSPGEYVNIEFGSDQSGYLSGPVAFHSSPSVRCPSQLQPAPREEETGTEEYMKMDLGPGRRAAWQESTGVEMGRLGPAPPGAASICRPTRAVPSSRGDYMTMQMSCPRQSYVDTSPAAPVSYADMRTGIAAEEVSLPRATMAAASSSSAASASPTGPQGAAELAAHSSLLGGPQGPGGMSAFTRVNLSPNRNQSAKVIRADPQGCRRRHSSETFSSTPSATRVGNTVPFGAGAAVGGGGGSSSSSEDVKRHSSASFENVWLRPGELGGAPKEPAKLCGAAGGLENGLNYIDLDLVKDFKQCPQECTPEPQPPPPPPPHQPLGSGESSSTRRSSEDLSAYASISFQKQPEDRQ

Variants of: B1
Conditions: with il4ra_human IL4R

effect of a mutation on the interaction	Variant
decreasing interaction	R227Q
decreasing interaction	R212Q
disrupting interaction	R212Q;R227Q
decreasing interaction	M257A
